Measured values as given in paper PMC9867944 (Bioscience Reports, 2023).

B1: mouse PD-1 protein (receptor, UniProt Q02242 25-288, looked up)
chain: LEVPNGPWRSLTFYPAWLTVSEGANATFTCSLSNWSEDLMLNWNRLSPSNQTEKQAAFCNGLSQPVQDARFQIIQLPNRHDFHMNILDTRRNDSGIYLCGAISLHPKAKIEESPGAELVVTERILETSTRYPSPSPKPEGRFQGM
notes: programmed death protein 1 (PD-1), mouse, protein coated on plates; also called mouse PD-1 antigen
B2: anti-PD-1 Nb C11, displayed on phage (VHH)
VHH: QVQLQESGGAWCEPGGSLTLPCAVSGFAVDRDAVSWVRKAPGQGLQWVSTTTPDGTNYYGALAKDRFTVTRDTTRNTLQLQLTKLRIEDTAKYHCVQDYCSTGRCSLRTQGTQVTVSS
notes: VHH C11 selected from a naive Bactrian camel phage display library; Detected with anti-M13/HRP; C11 was never made as an Fc fusion (ligation to pCZN1 failed); also called C11 Nb; source: E. coli TG1, phage in the supernatant of the colonies
B3: anti-PD-1 Nb C12, displayed on phage (VHH)
VHH: QVQLQELGETRCRHGGSLRLSCKVSGYTQRSYCLGWLRQAPGNEREAVAVLQHSGNFRHYADSVQGRFVISQDYTDNTVYLAMNNLKSEDAAMYYCAAVGLRVSQFNYWGQGTQVTVSS
notes: VHH C12 selected from a naive Bactrian camel phage display library; same VHH as in m1; Detected with anti-M13/HRP; also called C12 Nb; source: E. coli TG1, phage in the supernatant of the colonies

Assays:
anti-PD-1 Nb C12-Fc = molecular target: T1, anti-PD-1 Nb C12-Fc (Bactrian camel); test: ELISA; plates coated with human PD-1 or mouse PD-1 protein at 2 ug/ml overnight; serial diluted anti-PD-1 Nb-Fc added, 37 C, 1 h; HRP-conjugated antihuman IgG; settings: both partners purified
T1 construct: VHH C12 selected from a naive Bactrian camel phage display library; Nb C12 fused to the human IgG1 Fc fragment in plasmid pCZN1; about 40 kDa on SDS-PAGE; also called anti-PD-1 Nb-Fc; PD-1 C12 Nb-Fc

[1] = molecular target: T2, human PD-1 protein (Acro biosystems) (Homo sapiens (Human)., UniProt Q15116); test: ELISA; Phage-ELISA; wells coated with human PD-1 protein; supernatant of the colonies added for 1 h; anti-M13/HRP (1:5000); positive if absorbance more than two times the negative control (PBS); settings: one partner purified
T2 construct: programmed death protein 1 (PD-1), human, recombinant protein; probably the extracellular domain; also called human PD-1 antigen; hPD-1; source: bought: Acro biosystems
T2 sequence (Q15116 25-170): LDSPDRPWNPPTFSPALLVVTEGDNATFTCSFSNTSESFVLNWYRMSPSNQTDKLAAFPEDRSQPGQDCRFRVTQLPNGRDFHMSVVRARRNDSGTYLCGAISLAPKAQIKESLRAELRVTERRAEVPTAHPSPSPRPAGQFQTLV

| Binder | binding result (anti-PD-1 Nb C12-Fc) | binding result [1] |
| --- | --- | --- |
| B1 | no binding |  |
| B2 |  | binds |
| B3 |  | binds |
